assay: soluble on expression in E. coli; label from the status in PepcDB or PDB records

Soluble on expression in E. coli, not soluble:
MGSDKIHHHHHHMRVFVARQPIFNRKEQVVAYELLYRESEENVYSAKDGDQATTDLVINSFLNIGIEKLTEGKRCFVNFTESLMFSNLPTSFNPKQLVIEILEDIPITPALISRCKELKKMGYMLALDDFYAINPQDEDLLEKLMSYIDILKIDFLKTTRMERRTILQTYGCRGLIFLAEKVETRKEYKQAVQDGFQLFQGYFFSEPRIISGHDLSTHFYSYYELLNELSKEQPNIKRVTEYIERDLSLSYQILKFLNSSHSRLSQKIESIQQAIMLLGFNEIKRWIYILSFKDLSRKGHSSKHEIIKISLIRAKLCELLARKTSRPQPASYMLIGMFSLIDTLLHREIEEIVQELPLKDEVGQALLGHQNDYYQMLELVKLIESNNWDTCSELGNQLDKEEAYECYLEALEWCHNLMDAK
MSLKLKIADIAMRTGLSSSTVSRVLAGKANTSYRAREKVLACARELGVMDGMASGRMLLNNLVIFAPQRAFDERTDIFYFRVIQSISKALSHYEVRLRYCALDEFDSTPSKFLARMNEAETQAAILLGIDDPHIHDLAADFSKPCVMINCHDRRMRLPTVAPDHKNIGAFASHFLFEMGHRRVMNIMCLRRYTMELRLAGIKEAWERQNQNFKDDRDLLTINSFSAKEAEEKVGAWLDMTEKSMLPTAFLASGDFIAAGIINALKKRNIRVPQDVSVMSIDGFNLAAIEDVPLTAVHVPRDELGTEAVHMLQQRLVRPDATVGALLLYGKLVIRESVREGHHHHHH
MGSDKIHHHHHHMRTNKVVWSEGLFLRPQLFQQQERYLEYYAHKRAATITPFFWGFAQYEIDREALSYGKLVLRSGKGVLPDGTPFDIPGHAELPEPLTITPDHLGKLIYLAVPLRLDNSDETIFDEYDMSSLARFYAYEADLSDTNAIRQGPKPVQLSRLRLKLVSESEMTESWIGLPLAKVRAIQPDGSVLLHLEDYIPPVTGYAASSLLSEWLTHLNGLVKMRADMLAKRLSNSDGKASASAEIVDYLLLQIFNKYEPSLDHLRNIPELPPIVLYQELAKFAGELSTFIRTKTRRPRPAPGYDHGKLYPSIRPLVDDVHELLNQILVRAGQMIPLEPKGNGVWSASVLPNELRSFSNLVLAVHAQLPMDVLQHQFSVQTKISAPQQLHELVRSHLPGLELQRLPVPPRQIPYSAGYVYFELMKSGPFWDKVSNAGAIALHVAGDFPALKMELWGIRDS
MGSDKIHHHHHHMEYVNIKLPYDKKQITAKIYKRNLAGILVSKSENYKNSLSEKELVEKSLDNPIASPKLEELVKGKKNIVLISSDHTRPVPSKIITPILLRRIRSVEPNANIIILVATGFHRPSTHEELVDKYGEEIVKRENIVMHVSTDDSAMVQIGTLPSGGPCIINKIAAEADLLIAEGFIESHFFAGFSGGRKSVLPGIASYKTIMANHCGEFINSNKARTGNIKCNPIHEDMVYAARTAGLKFILNVVLDGNKKIIGSFAGDVEKAHETGCDFVKDLARVKKVPCDIAVSTNGGYPLDQNIYQAVKGMTAAEATNKENGVIIMVAGCRDGHGGEGFYKNLANVKTPEEFLEKAIHTERQKTIPDQWTSQILARILSKHHVIMVSDLVDQKLICGMHMELVSNFEEALERAYKIEGKDAKVTVIPDGLSVIVE
MGSDKIHHHHHHMLTLLSYHQKVLDHFKHQTKTWDFFTASQNKDEQLNQYKTELLKNTYKFDPEKDTSIYEKVAKSKQVLGLDINVYVYQAQYSDELNASVGFVNNEAHIVFSGQIIQLLDDDELLTVIAHELSHIKLYTMQGGDPEVAARIITAISNNYDSESSYMETARLFRLYTEIFCDRGAYEVQGSTGPVITSLVKTATGLKQVNAESYIKQAEEIFSADQQLKAASISHPENFIRARAIHLWHEKKEAAEEEIIRMIEGVTDIDALDIFKQKELAACTRQFLQLYLKPNWFRSTLVVSQAKQYFVDFSWDDKIILEETFITRMEKAHESVKNYFSYVLLDFALLDSTLEEIPFGWAFQFAEDIDIKETFDAVVKKELNLSDKKLQQHKQKTLSAFYNVKEGDGEQIYEG
MRHLPTTDIQSTLRRGKSVEQFMGRSPASRNHIRHIELRPSNNLVEVWVYDVEDQGNEEWLDLYDFNELEKGEADLPAATFVDADAAIAYAQEALSANPSRWVNLGIAQSEYLDYIRSGRPDRWPAAA

— the DeepSol protein solubility set
